Results as given in patent US20260167699A1 (Chugai, published 2026).
Numbering of substitutions follows the chain as printed. Names may count otherwise.

T1: FcγRIIb (human, UniProt P31994 43-217)
T1 construct: extracellular domain; also called 2b
T1 sequence: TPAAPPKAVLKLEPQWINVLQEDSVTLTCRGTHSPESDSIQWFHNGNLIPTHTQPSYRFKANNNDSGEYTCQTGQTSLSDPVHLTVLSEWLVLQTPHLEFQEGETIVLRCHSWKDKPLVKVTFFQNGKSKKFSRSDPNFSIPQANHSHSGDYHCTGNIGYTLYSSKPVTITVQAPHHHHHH

T2: FcγRIIa(R) (human, UniProt P12318 34-217)
T2 construct: extracellular domain; also called 2aR
T2 sequence: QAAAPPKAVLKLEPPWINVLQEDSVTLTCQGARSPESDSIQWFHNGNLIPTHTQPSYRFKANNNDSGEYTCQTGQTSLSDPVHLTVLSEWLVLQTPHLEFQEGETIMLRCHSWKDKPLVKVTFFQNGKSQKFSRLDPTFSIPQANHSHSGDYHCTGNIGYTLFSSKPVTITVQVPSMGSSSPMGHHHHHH

T3: FcγRIIa(H) (human, UniProt P12318 34-217)
T3 construct: extracellular domain; also called 2aH
T3 sequence: T2 sequence with R134H

B1: GpH7-G1d/GpL16-k0 (antibody, human IgG1, kappa)
heavy: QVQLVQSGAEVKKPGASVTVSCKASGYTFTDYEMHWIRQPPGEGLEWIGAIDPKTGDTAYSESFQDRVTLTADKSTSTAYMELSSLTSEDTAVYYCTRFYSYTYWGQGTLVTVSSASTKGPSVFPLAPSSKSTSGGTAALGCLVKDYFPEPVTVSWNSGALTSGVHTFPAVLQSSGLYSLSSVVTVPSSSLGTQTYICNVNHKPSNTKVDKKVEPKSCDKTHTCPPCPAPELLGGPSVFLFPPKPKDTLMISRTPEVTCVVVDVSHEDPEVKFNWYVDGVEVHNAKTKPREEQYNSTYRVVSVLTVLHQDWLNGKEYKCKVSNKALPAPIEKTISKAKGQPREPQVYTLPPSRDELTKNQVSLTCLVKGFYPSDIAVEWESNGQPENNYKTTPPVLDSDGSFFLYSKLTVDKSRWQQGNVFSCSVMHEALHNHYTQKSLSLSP
light: DIVMTQSPLSLPVTPGEPASISCQASESLVHSNRNTYLHWYLQKPGQSPQLLIYKVSNRFSGVPDRFSGSGSGTDFTLKISRVEAEDVGVYYCSQNTHVPPTFGQGTKVEIERTVAAPSVFIFPPSDEQLKSGTASVVCLLNNFYPREAKVQWKVDNALQSGNSQESVTEQDSKDSTYSLSSTLTLSKADYEKHKVYACEVTHQGLSSPVTKSFNRGEC
notes: anti-glypican 3 IgG1, C-terminal Gly and Lys of the H chain deleted; also called naturally occurring IgG1
B2: GpH7-A5/GpH7-B78/GpL16-k0 (antibody, human IgG1, kappa)
heavy 1: not shown
heavy 2: QVQLVQSGAEVKKPGASVTVSCKASGYTFTDYEMHWIRQPPGEGLEWIGAIDPKTGDTAYSESFQDRVTLTADKSTSTAYMELSSLTSEDTAVYYCTRFYSYTYWGQGTLVTVSSASTKGPSVFPLAPSSKSTSGGTAALGCLVKDYFPEPVTVSWNSGALTSGVHTFPAVLQSSGLYSLSSVVTVPSSSLGTQTYICNVNHKPSNTKVDKKVEPKSCDKTHTCPPCPAPELLGGPDVFLFPPKPKDTLMISRTPEVTCVVVDVSHEDPEVKFNWYVDGVEVHNAKTKPREEQYNSTYRVVSVLTVLHQDWLNGKEYKCKVSNKALPLPEEKTISKAKGQPREPQVYTLPPSRDELTKNQVSLTCLVKGFYPSDIAVEWESNGQPENNYKTTPPVLDSDGSFFLYSKLTVDKSRWQQGNVFSCSVMHEALHNHYTQESLSLSP
light: B1 light
notes: heterodimerized anti-glypican 3 IgG1; S239D/A330L/I332E in one H chain
B3: GpH7-TA7/GpH7-B3/GpL16-k0 (antibody, human IgG1, kappa)
heavy 1: B2 heavy 2 with L232Y, G234W, D237S, S296A, L328A, E330I, D354K, H433R, E437K
heavy 2: not shown
light: B1 light
notes: heterodimerized anti-glypican 3 IgG1; L234Y/G236W/S298A in one H chain
B4: GpH7-A57/GpH7-B78/GpL16-k0 (antibody, human IgG1, kappa)
heavy 1: B2 heavy 2 with D354K, H433R, E437K
heavy 2: B2 heavy 2
light: B1 light
notes: anti-glypican 3 IgG1 called homodimerized: S239D/A330L/I332E in both H chains
B5: GpH7-A5/GpH7-B3 variant S337_20W/GpL16-k0 (antibody, human IgG1, kappa)
heavy 1: not shown
heavy 2: not shown
light: B1 light
notes: heterodimerized anti-glypican 3 IgG1, only the GpH7-B3 chain mutated; also called He Ab
B6: GpH7-A5/GpH7-B3 variant S337_19Q/GpL16-k0 (antibody, human IgG1, kappa)
heavy 1: not shown
heavy 2: not shown
light: B1 light
notes: as for B5
B7: GpH7-A5/GpH7-B3 variant S337_16H/GpL16-k0 (antibody, human IgG1, kappa)
heavy 1: not shown
heavy 2: not shown
light: B1 light
notes: as for B5
B8: GpH7-A5/GpH7-B3 variant S337_08L/GpL16-k0 (antibody, human IgG1, kappa)
heavy 1: not shown
heavy 2: not shown
light: B1 light
notes: as for B5
B9: GpH7-A5/GpH7-B3 variant S337_11K/GpL16-k0 (antibody, human IgG1, kappa)
heavy 1: not shown
heavy 2: not shown
light: B1 light
notes: as for B5
B10: GpH7-A5/GpH7-B3 variant S337_07I/GpL16-k0 (antibody, human IgG1, kappa)
heavy 1: not shown
heavy 2: not shown
light: B1 light
notes: as for B5
B11: GpH7-A5/GpH7-B3 variant S337_14T/GpL16-k0 (antibody, human IgG1, kappa)
heavy 1: not shown
heavy 2: not shown
light: B1 light
notes: as for B5
B12: GpH7-A5/GpH7-B3 variant S337_15Y/GpL16-k0 (antibody, human IgG1, kappa)
heavy 1: not shown
heavy 2: not shown
light: B1 light
notes: as for B5
B13: H240-Kn061/H240-Hl134/L73-k0 (antibody, human IgG1, kappa)
heavy 1: QDQLVQSGAEVKKPGASVKVSCKASGFNIKDTYIQWVRQAPGQGLEWMGRIDPLRKQTKYREKFEGRVTITADTSTNTAYMELSSLRSEDTAVYYCVRSGREFDYWGQGTLVTVSSASTKGPSVFPLAPSSKSTSGGTAALGCLVKDYFPEPVTVSWNSGALTSGVHTFPAVLQSSGLYSLSSVVTVPSSSLGTQTYICNVNHKPSNTKVDKKVEPKSCDKTHTCPPCPAPEYYWGPSVFLFPPKPKDTLMISRTPEVTCVVVDVSDEDPEVKFNWYVDGVEVHNAKTKPREEQYNATYRVVSVLTVLHQDWLNGKEYKCKVSNKALPAPIEKTISKAKGQPREPQVCTLPPSRDELTKNQVSLWCLVKGFYPSDIAVEWESNGQPENNYKTTPPVLDSDGSFFLYSKLTVDKSRWQQGNVFSCSVMHEALHNHYTQKSLSLSP
heavy 2: B13 heavy 1 with C348Y, D355C, W365S, L367A, Y406V
light: DIQMTQSPSSLSASVGDRVTITCRASQDIHKYIAWYQQKPGQAPRLLIQYTSTLQPGVPSRFSGSGSGTDYTFTISSLQPEDIATYYCLQYEQLRTFGGGTKVEIKRTVAAPSVFIFPPSDEQLKSGTASVVCLLNNFYPREAKVQWKVDNALQSGNSQESVTEQDSKDSTYSLSSTLTLSKADYEKHKVYACEVTHQGLSSPVTKSFNRGEC
notes: anti-epiregulin IgG1 called homodimerized: L234Y/L235Y/G236W/H268D/S298A in both H chains; also called H240-Kn061/H240-HI134/L73-k0
B14: H240-Kn132/H240-Hl071/L73-k0 (antibody, human IgG1, kappa)
heavy 1: B13 heavy 1 with Y233L, Y234L, W235G, D267H, A297S, K325D, A329M, K333E
heavy 2: QDQLVQSGAEVKKPGASVKVSCKASGFNIKDTYIQWVRQAPGQGLEWMGRIDPLRKQTKYREKFEGRVTITADTSTNTAYMELSSLRSEDTAVYYCVRSGREFDYWGQGTLVTVSSASTKGPSVFPLAPSSKSTSGGTAALGCLVKDYFPEPVTVSWNSGALTSGVHTFPAVLQSSGLYSLSSVVTVPSSSLGTQTYICNVNHKPSNTKVDKKVEPKSCDKTHTCPPCPAPELLGGPSVFLFPPKPKDTLMISRTPEVTCVVVDVSHEDPEVKFNWYVDGVEVHNAKTKPREEQYNSTYRVVSVLTVLHQDWLNGKEYKCKVSNDALPMPIEETISKAKGQPREPQVYTLPPSRCELTKNQVSLSCAVKGFYPSDIAVEWESNGQPENNYKTTPPVLDSDGSFFLVSKLTVDKSRWQQGNVFSCSVMHEALHNHYTQKSLSLSP
light: B13 light
notes: anti-epiregulin IgG1 called homodimerized: K326D/A330M/K334E in both H chains; also called H240-Kn132/H240-HI071/L73-k0
B15: GpH7-A5/GpH7-B3 variant S337_11K/GpL16-k0 (antibody, human IgG1, kappa)
heavy 1: not shown
heavy 2: not shown
light: B1 light
notes: heterodimerized anti-glypican 3 IgG1; mutation in one H chain only; also called He Ab
B16: GpH7-A5/GpH7-B3 variant S337_14T/GpL16-k0 (antibody, human IgG1, kappa)
heavy 1: not shown
heavy 2: not shown
light: B1 light
notes: as for B15
B17: GpH7-A5/GpH7-B3 variant S337_15Y/GpL16-k0 (antibody, human IgG1, kappa)
heavy 1: not shown
heavy 2: not shown
light: B1 light
notes: as for B15
B18: GpH7-A5/GpH7-B3 variant S337_20W/GpL16-k0 (antibody, human IgG1, kappa)
heavy 1: not shown
heavy 2: not shown
light: B1 light
notes: as for B15
B19: GpH7-A5/GpH7-B3 variant S337_19Q/GpL16-k0 (antibody, human IgG1, kappa)
heavy 1: not shown
heavy 2: not shown
light: B1 light
notes: as for B15
B20: GpH7-A5/GpH7-B3 variant S337_16H/GpL16-k0 (antibody, human IgG1, kappa)
heavy 1: not shown
heavy 2: not shown
light: B1 light
notes: as for B15

Biological target: T4, FcγRIIIa extracellular domain with C-terminal His tag (allotype not given) (human, UniProt P08637 17-208)
T4 construct: extracellular domain; also called 3a
T4 sequence (P08637 other isoform, or with tags, fused parts or gaps): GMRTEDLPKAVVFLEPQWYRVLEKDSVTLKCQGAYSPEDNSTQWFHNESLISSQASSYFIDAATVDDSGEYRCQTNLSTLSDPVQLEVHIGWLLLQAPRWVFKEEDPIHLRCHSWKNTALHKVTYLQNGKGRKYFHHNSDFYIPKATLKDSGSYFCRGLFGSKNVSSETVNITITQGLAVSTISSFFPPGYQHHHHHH
Test: SPR (Biacore), captured antibody, FcγRIIIa analyte, 1:1 Langmuir fit

Binder	Kd [nM]
B1	1200
B2	54
B3	320
B4	6.2

Biological target: T4, FcγRIIIa extracellular domain with …
Test: SPR; KD of GpH7-G1d/GpL16-k0 for FcγRIIIa divided by KD of this antibody
Experimental: (§1) The antibody of interest was analyzed for its interaction with FcγR using a BiaCore™ T100, BiaCore™ A100, or BiaCore™ 4000 surface plasmon resonance system (GE Healthcare Japan Corp.). The running buffer used was HBS-EP+ (GE Healthcare Japan Corp.). The assay temperature was set to 25° C. The sensor chips used were: a chip prepared by immobilizing antigenic peptides onto Series S Sensor Chip CM5 (GE Healthcare Japan Corp.) by the amine coupling method; a chip prepared by immobilizing antigenic peptides biotinylated in advance onto Series S Sensor Chip SA (certified) (GE Healthcare Japan Corp.) through their interaction; a chip prepared by immobilizing protein L (ACTIGEN, BioVision, Inc.) onto Series S Sensor Chip CM5 (GE Healthcare Japan Corp.); and a chip prepared by immobilizing protein A/G (Thermo Fisher Scientific K.K.) onto Series S Sensor Chip CM5 (GE Healthcare Japan Corp.). The antibody of interest was captured onto any of these chips and allowed to interact with FcγR diluted with a running buffer. The antibody captured on the chip was washed off through the reaction of 10 mM glycine-HCl (pH 1.5) to regenerate the chip, which was repetitively used.

Binder	KD ratio1 [fold]
B1	1
B2	23
B3	3.8
B4	199

Biological target: T5, FcγRIa (human, UniProt P12314 16-292)
T5 construct: extracellular domain; also called 1a
T5 sequence (P12314 other isoform, or with tags, fused parts or gaps): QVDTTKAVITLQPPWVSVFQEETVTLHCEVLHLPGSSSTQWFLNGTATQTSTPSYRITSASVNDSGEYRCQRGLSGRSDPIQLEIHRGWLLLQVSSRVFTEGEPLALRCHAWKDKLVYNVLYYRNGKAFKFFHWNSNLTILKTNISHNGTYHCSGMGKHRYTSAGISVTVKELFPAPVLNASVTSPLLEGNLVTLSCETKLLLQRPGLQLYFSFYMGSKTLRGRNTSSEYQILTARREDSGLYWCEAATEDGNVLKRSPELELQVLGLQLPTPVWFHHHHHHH
Test: SPR (Biacore); He Ab binding / HeCon Ab (GpH7-A5/GpH7-B3/GpL16-k0) binding x100;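 also: antibody captured on the sensor chip, soluble FcγR flowed over it in HBS-EP+ running buffer, 25 °C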
Experimental: as §1

Binder	He/Con 1a [%]
B5	102
B6	101
B7	101
B8	102
B9	101
B10	102
B11	102
B12	101

Biological target: T1, FcγRIIb
Test: as above
Experimental: as §1

Binder	He/Con 2b [%]
B5	119
B6	109
B7	114
B8	109
B9	103
B10	113
B11	114
B12	109

Biological target: T2, FcγRIIa(R)
Test: as above
Experimental: as §1

Binder	He/Con 2aR [%]
B5	112
B6	108
B7	111
B8	109
B9	105
B10	111
B11	112
B12	107

Biological target: T3, FcγRIIa(H)
Test: as above
Experimental: as §1

Binder	He/Con 2aH [%]
B5	108
B6	104
B7	108
B8	106
B9	102
B10	107
B11	110
B12	106

Biological target: T6, FcγRIIIa(V) extracellular domain with C-terminal His tag (human, UniProt P08637 17-208)
T6 construct: extracellular domain; polymorphic form V158; also called FcγRIIIa V type
T6 sequence (P08637 other isoform, or with tags, fused parts or gaps): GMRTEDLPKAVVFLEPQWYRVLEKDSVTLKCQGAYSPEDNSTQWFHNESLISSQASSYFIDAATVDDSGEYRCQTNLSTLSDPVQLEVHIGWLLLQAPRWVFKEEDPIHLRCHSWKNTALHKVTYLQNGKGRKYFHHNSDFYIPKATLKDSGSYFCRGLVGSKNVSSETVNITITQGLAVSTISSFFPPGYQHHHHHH
Test: SPR (Biacore), captured antibody, FcγR analyte, 1:1 Langmuir fit;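 also: surface plasmon resonance at 25 °C in HBS-EP+ running buffer, antibody captured on sensor chip, FcγR flowed over as analyte in the same buffer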
Experimental: as §1

Binder	Kd [nM]
B13	86
B14	16

Biological target: T7, FcγRIIIa(F) extracellular domain with C-terminal His tag (human, UniProt P08637 17-208)
T7 construct: extracellular domain; polymorphic form F158; also called FcγRIIIa F type
Test: as above
Experimental: as §1

Binder	Kd [nM]
B13	660
B14	77

Biological target: T4, FcγRIIIa extracellular domain with …
Test: SPR; KD of GpH7-A5/GpH7-B3/GpL16-k0 for FcγRIIIa divided by KD of this antibody
Experimental: as §1

Binder	KD ratio2 [fold]
B2	30
B3	5.1
B4	263

Biological target: T4, FcγRIIIa extracellular domain with …
Test: SPR (Biacore), captured antibody, FcγRIIIa analyte; binding relative to GpH7-A5/GpH7-B3/GpL16-k0 = 100

Binder	He/Con 3a [%]
B15	80.1
B16	94
B17	94.9
B18	93.8
B19	91.2
B20	100
